Paper PMC4835091

What was measured:
ZapD (purified), P36680 = molecular target: T1, ZapD (purified), P36680; test: co-sedimentation assay, SDS-PAGE quantification; conditions: chain shown with the change, 50 mM K-MOPS pH 6.5, 50 mM KCl, 2.5 mM MgCl2, 1 mM GTP, 3 µM BSA, read off a plot
T1 chain: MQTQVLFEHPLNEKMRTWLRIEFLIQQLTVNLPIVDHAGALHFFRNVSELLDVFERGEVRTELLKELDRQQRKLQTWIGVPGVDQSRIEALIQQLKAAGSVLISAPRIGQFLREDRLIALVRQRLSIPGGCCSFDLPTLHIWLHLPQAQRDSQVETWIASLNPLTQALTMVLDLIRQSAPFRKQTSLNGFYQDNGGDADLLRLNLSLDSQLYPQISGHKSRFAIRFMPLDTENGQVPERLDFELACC

[1] = molecular target: T2, FtsZ(NRNKRG) (purified), P0A9A6; test: sedimentation (co-pelleting) assay, SDS-PAGE quantification; conditions: chain shown with the change, 50 mM K-MOPS pH 6.5, 50 mM KCl, 2.5 mM MgCl2, 1 mM GTP, 3 µM BSA, read off a plot
T2 chain: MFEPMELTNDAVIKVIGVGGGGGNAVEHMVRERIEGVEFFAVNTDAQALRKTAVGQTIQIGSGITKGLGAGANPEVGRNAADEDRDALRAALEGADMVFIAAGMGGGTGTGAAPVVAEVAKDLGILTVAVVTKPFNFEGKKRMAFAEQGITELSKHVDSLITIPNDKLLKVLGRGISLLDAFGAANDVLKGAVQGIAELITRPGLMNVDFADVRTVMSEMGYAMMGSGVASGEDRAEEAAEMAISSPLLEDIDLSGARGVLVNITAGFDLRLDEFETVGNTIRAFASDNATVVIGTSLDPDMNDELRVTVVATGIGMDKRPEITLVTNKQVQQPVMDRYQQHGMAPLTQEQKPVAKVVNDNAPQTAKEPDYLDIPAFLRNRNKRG

B1: FtsZ (purified, WT), P0A9A6 CTV KQAD (380-383) replaced by NRNKRG (protein)
chain: MFEPMELTNDAVIKVIGVGGGGGNAVEHMVRERIEGVEFFAVNTDAQALRKTAVGQTIQIGSGITKGLGAGANPEVGRNAADEDRDALRAALEGADMVFIAAGMGGGTGTGAAPVVAEVAKDLGILTVAVVTKPFNFEGKKRMAFAEQGITELSKHVDSLITIPNDKLLKVLGRGISLLDAFGAANDVLKGAVQGIAELITRPGLMNVDFADVRTVMSEMGYAMMGSGVASGEDRAEEAAEMAISSPLLEDIDLSGARGVLVNITAGFDLRLDEFETVGNTIRAFASDNATVVIGTSLDPDMNDELRVTVVATGIGMDKRPEITLVTNKQVQQPVMDRYQQHGMAPLTQEQKPVAKVVNDNAPQTAKEPDYLDIPAFLRNRNKRG
Work on B1 yielded a response (% ZapD in pellet) (ZapD (purified), P36680; 5 µM FtsZ with ZapD at 1:0.2, parent: est. 62) of 17, a response (% ZapD in pellet) (ZapD (purified), P36680; 5 µM FtsZ with ZapD at 1:1, parent: est. 55) of 23 and a response (% FtsZ in pellet) ([1]; 5 µM FtsZ with ZapD at 1:0.2, parent: est. 44) of 34. It also gave a response (% FtsZ in pellet) ([1]; 5 µM FtsZ with ZapD at 1:1, parent: est. 73) of 36 and a response (% FtsZ in pellet) ([1]; 5 µM FtsZ, no ZapD, parent: est. 26) of 31.
